# PMC6167709
# Legend:
# [1] = target: ConSOSL.UFO.664 gp140 (HIV-1 (group M consensus, ConS)); test: SEC; ConSOSL.UFO.664 from concentrated 293T.17 supernatant, in PBS, Enrich SEC 650 column; oligomeric state of the gp140
# [2] = as above
substance,measurement,setting,value
ConSOSL.UFO.664 gp140,stoichiometry N,[1],3
same,share of the trimer peak in the SEC profile,[2],trimer peak ∼54%
